B1: hFC-F107-10G1 (antibody, human IgG1, kappa, V domains shown)
VH: EVNLVESGGGVVKPGASLKLSCEASGFTFSNYGMSWVRQTSDKRLEWVASISGGGGRTYYLDNVKGRFIISRENAKNTLYLQMSSLKSEDTALFYCARGARASYFAMDYWGQGSSVTVSS
VL: VIVMTQSHKFMSTSVGDRVSITCKASQDVTTAVAWYQQKPGQSPKLLIYWASTRHTGVPDRFTGSGSGTDYSLTISNVQTEDLAFYYCQQHFTTPLTFGAGTKLELKR
notes: Chimeric mAb, human IgG1 / human kappa constant regions; also called mAb F107-10G1
B2: NRC-sdAb001-Fc (VHH-human IgG1 Fc fusion) (Fc fusion)
chain: QVKLEESGGGLVQAGGSLRLSCTASASISSFDIMGWYRQAPGKQRELVAAITTLDIANYRDSVKGRFTISRDNAKNTVYLQMDSLKPEDTARYHCAAFQSDQNYWGQGTQVTVSS
notes: VHH fused N-terminally to human IgG1 Fc, made in HEK293 cells; also called NRC-sdAb0001-Fc; NRC-sdAb001-hIgG1; not shown: human IgG1 Fc

Tests used:
[1] = target: T1, recombinant cynomolgus AXL extracellular domain (cynomolgus); assay: SPR Biacore T200, mAb captured on anti-Fc, AXL ECD flowed, multi-cycle kinetics
T1 construct: range 1-449; also called Cyno AXL; cyno AXL ECD
Experimental: Surface plasmon resonance. For murine mAbs, binding to human and cynomolgus AXL ECD was assessed using a Biacore T200 instrument. Briefly, either anti-mouse or anti-human Fc antibody was immobilized on a research-grade CM5 series S sensor chip using amine coupling in acetate buffer. Murine or recombinant chimeric murine-human mAbs (mouse VH/VL; human constant regions) were captured, then recombinant human or cyno AXL ECD was flowed over the surface at different concentration ranges (0.1-500 nM) depending on the antibody. The running buffer was PBS/Tween-20 and the flow rate 100 uL/min. All binding studies were performed at 25° C. Surfaces were regenerated using 10 mM glycine, pH 1.5.

[2] = target: T2, mouse AXL extracellular domain (Sino cat. 51026-M08H) (mouse, UniProt Q00993 19-445); assay: ELISA on coated mouse AXL ECD (100 ng/well)
T2 construct: extracellular domain; Bought protein; also called mouse AXL ECD
T2 sequence (looked up): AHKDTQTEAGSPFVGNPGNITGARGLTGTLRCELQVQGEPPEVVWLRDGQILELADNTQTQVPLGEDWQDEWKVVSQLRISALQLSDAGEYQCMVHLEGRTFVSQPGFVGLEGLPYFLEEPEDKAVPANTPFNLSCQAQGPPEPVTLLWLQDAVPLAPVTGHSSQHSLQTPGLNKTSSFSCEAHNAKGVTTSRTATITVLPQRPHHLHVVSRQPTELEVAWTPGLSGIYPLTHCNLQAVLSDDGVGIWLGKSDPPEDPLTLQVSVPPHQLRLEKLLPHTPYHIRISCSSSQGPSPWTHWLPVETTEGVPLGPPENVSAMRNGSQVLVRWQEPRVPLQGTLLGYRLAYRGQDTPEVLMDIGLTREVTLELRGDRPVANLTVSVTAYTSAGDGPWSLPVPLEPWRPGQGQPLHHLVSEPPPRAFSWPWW
Experimental: (§1) ELISA. ELISAs against human, cyno and mouse AXL ECDs were conducted by immobilizing 100 ng of each protein in wells of Nunc MaxiSorp microplates overnight. Human AXL (aa 1-451) and cyno AXL (aa 1-449) were produced recombinantly as described in Example 10. Mouse AXL was purchased from Sino (cat. 51026-M08H). The next day, plates were blocked with 5% (w/v) dried milk in PBS. Murine mAbs (either hybridoma- or recombinantly-produced) or VHH-Fcs were diluted in PBS containing 1% BSA and 0.1% Tween-20 and added to wells for 2 hours at room temperature. Wells were washed 5× with PBS containing 0.1% Tween-20, then HRP-labeled protein A (diluted 1:1000 in PBS containing 1% BSA and 0.1% Tween™-20) was added to wells for 1 hour at room temperature. Wells were washed again 5× with PBS/0.1% Tween-20 and developed using TMB substrate. Absorbance was measured at 450 nm. As a positive control for mouse AXL binding, a commercial anti-mouse AXL mAb (clone 175128, R&D Systems MAB8541, rat IgG2A) was used and detected with donkey […] secondary antibody.

[3] = target: T2, mouse AXL extracellular domain (Sino …); assay: ELISA on coated mouse AXL ECD (100 ng/well), VHH-Fc
Experimental: as §1

[4] = target: T3, human AXL expressed on the cell surface of tumor cell lines (human, UniProt P30530 26-894); assay: FACS on SKOV3 cells, apparent Kd, human Fc format
T3 construct: whole, on cells; also called cell surface-expressed AXL; cell-based AXL
T3 sequence (looked up): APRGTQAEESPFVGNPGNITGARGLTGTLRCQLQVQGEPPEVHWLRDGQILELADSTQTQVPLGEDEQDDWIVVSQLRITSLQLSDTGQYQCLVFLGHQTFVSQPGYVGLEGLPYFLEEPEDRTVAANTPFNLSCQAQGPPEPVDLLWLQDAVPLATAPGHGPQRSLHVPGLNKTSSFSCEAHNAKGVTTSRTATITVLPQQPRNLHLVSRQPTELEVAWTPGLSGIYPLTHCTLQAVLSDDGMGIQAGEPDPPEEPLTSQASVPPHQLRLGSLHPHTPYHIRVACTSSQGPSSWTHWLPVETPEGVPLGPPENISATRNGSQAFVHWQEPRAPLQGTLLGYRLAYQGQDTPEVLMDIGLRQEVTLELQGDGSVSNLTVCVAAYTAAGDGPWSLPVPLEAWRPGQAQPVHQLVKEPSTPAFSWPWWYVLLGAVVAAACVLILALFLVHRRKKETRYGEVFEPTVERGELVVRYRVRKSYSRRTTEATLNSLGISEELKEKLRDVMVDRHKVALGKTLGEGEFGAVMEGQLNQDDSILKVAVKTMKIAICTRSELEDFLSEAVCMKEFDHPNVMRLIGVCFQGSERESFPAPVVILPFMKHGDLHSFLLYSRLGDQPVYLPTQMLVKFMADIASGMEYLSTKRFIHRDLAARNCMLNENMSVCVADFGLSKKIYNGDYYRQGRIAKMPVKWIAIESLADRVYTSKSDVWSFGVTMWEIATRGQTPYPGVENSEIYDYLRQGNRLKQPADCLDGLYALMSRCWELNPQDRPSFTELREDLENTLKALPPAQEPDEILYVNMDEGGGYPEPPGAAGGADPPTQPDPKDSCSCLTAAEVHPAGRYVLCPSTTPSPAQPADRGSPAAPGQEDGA
Experimental: FACS binding assay. Adherent cells were dissociated with non-enzymatic Sigma Cell Dissociation Solution (Cat. No. C5789). Cells suspensions were added to polypropylene, V-bottom 96-well plates and incubated for 2 hours on ice with primary antibodies at concentrations ranging from 100 nM to 0.001 nM or at a single dose of 100 nM (for the non-specific control). After incubation and washes, cells were incubated with fluorescently labeled secondary antibody (Alexa Fluor® 488 anti-human IgG from Jackson Cat. No 709-546-098) for 1 hour on ice, then washed. Cell viability was determined using Fixable viability dye 450 (20 min on ice). Stained cells were fixed in 1% formaldehyde at 4° C. and stored at 4° C. until acquisition which was performed the next day.
Binding of recombinant chimeric Abs to three cell lines was assessed by FACS as described above. The apparent Bmax and Kd determination is shown below in Table 14.

| Binder | Kd [1] | koff [1] | kon [1] | binding result [2] | binding result [3] | Kd [4] |
| --- | --- | --- | --- | --- | --- | --- |
| B1 | 0.2 nM | 0.00023 s⁻¹ | 1.8e+06 M⁻¹ s⁻¹ | no binding |  |  |
| B2 |  |  |  |  | no binding | 0.112 nM |

From patent US20240076389A1 (NATIONAL RESEARCH COUNCIL OF CANADA, published 2024)
